T1: Npw38 (Homo sapiens, UniProt O60828, W52A)
T1 construct: expressed in transfected cells; host or cells: COS7 (monkey kidney)
T1 sequence (O60828 2-265 W52A): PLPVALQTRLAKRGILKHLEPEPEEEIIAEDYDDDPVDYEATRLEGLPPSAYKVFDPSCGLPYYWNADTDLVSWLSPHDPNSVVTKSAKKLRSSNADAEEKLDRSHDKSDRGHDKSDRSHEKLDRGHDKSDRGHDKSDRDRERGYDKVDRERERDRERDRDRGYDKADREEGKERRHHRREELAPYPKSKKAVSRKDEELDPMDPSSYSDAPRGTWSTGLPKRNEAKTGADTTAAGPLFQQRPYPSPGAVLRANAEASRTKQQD

T2: binding of Npw38 to NpwBP(P2)-GFP (Homo sapiens, UniProt O60828)
T2 construct: expressed in transfected cells; host or cells: COS7 (monkey kidney)
T2 sequence (O60828 1-265): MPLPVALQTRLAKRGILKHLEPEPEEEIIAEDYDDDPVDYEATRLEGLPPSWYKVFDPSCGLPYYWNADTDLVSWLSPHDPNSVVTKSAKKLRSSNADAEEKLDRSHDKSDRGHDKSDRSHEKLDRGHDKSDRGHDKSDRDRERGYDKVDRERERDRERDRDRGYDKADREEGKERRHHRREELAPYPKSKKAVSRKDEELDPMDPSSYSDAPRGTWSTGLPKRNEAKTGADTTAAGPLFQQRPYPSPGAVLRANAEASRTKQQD

B1: Npw38(W52A): a WW domain variant of Npw38 (protein)
chain: MPLPVALQTRLAKRGILKHLEPEPEEEIIAEDYDDDPVDYEATRLEGLPPSAYKVFDPSCGLPYYWNADTDLVSWLSPHDPNSVVTKSAKKLRSSNADAEEKLDRSHDKSDRGHDKSDRSHEKLDRGHDKSDRGHDKSDRDRERGYDKVDRERERDRERDRDRGYDKADREEGKERRHHRREELAPYPKSKKAVSRKDEELDPMDPSSYSDAPRGTWSTGLPKRNEAKTGADTTAAGPLFQQRPYPSPGAVLRANAEASRTKQQD
B2: NpwBP: nuclear protein (SEQ ID NO: 2) that binds to Npw38 (protein, listed as Homo sapiens)
chain: MGRRSTSSTKSGKFMNPTDQARKEARKRELKKNKKQRMMVRAAVLKMKDPKQIIRDMEKLDEMEFNPVQQPQLNEKVLKDKRKKLRETFERILRLYEKENPDIYKELRKLEVEYEQKRAQLSQYFDAVKNAQHVEVESIPLPDMPHAPSNILIQDIPLPGAQPPSILKKTSAYGPPTRAVSILPLLGHGVPRLPPGRKPPGPPPGPPPPQVVQMYGRKVGFALDLPPRRRDEDMLYSPELAQRGHDDDVSSTSEDDGYPEDMDQDKHDDSTDDSDTDKSDGESDGDEFVHRDNGERDNNEEKKSGLSVRFADMPGKSRKKKKNMKELTPLQAMMLRMAGQEIPEEGREVEEFSEDDDEDDSDDSEAEKQSQKQHKEESHSDGTSTASSQQQAPPQSVPPSQIQAPPMPGPPPLGPPPAPPLRPPGPPTGLPPGPPPGAPPFLRPPGMPGLRGPLPRLLPPGPPPGRPPGPPPGPPPGLPPGPPPRGPPPRLPPPAPPGIPPPRPGMMRPPLVPPLGPAPPGLFPPAPLPNPGVLSAPPNLIQRPKADDTSAATIEKKATATISAKPQITNPKAEITRFVPTALRVRRENKGATAAPQRKSEDDSAVPLAKAAPKSGPSVPVSVQTKDDVYEAFMKEMEGLL

Legend:
Npw38 = target: T1, Npw38; assay: Npw38-NpwBP binding detection by intracellular localization of GFP fluorescence in COS7 cells; type: cell-based; details: expressed in place of HA-Npw38 together with NpwBP-GFP
Description: Monkey kidney-derived, cultured cell COS7 was incubated in a 10% fetal calf serum-containing Dulbecco's modified Eagle's medium (DMEM) in the presence of 5% CO2 at 37° C. COS7 cells of 1=10^5 were placed in a 6-well plate (from Nunk, having a well diameter of 3 cm), and further incubated therein in the presence of 5% CO2 at 37° C. for 22 hours. After the medium was removed, the cell sur were washed with a phosphate buffer solution (PBS), and then further washed with a 50 mM Tris-HCl (pH 7.5)-containing DMEM. To these cells, added was a suspension comprising 1 μl of a plasmid suspension, 0.6 ml of DMEM and 3 μl of TRANSFECTAM™ (from IBF), and incubated in the presence of 5% CO2 at 37° C. for 12 hours. Then, the cells were washed with PBS, and fixed with 4% peraformaldehyde-containing PBS at room temperature for 10 minutes. The thus-fixed cells were washed with PBS, then treated with 0.2% Triton X-100, and thereafter blocked with 5% milk PBS. This was reacted with an anti-HA antibody for 45 minutes, then washed with PBS, and reacted with a rhodamine-binding secondary antibody for 45 minutes. […]
First, pKA1-NpwBP(P1)-GFP or pKA1-NpwBP(P2)-GFP was singly introduced into COS7 cells, and the localization of these fusion proteins in the cells was checked through fluorescence microscopy based on the green fluorescence of GFP as the index thereof. […]

[1] = target: T2, binding of Npw38 to NpwBP(P2)-GFP; assay: Detection of binding-inhibitory action on intranuclear localization of NpwBP(P2)-GFP; type: cell-based; details: COS7 cells, NpwBP of more than NpwBP(P2)-GFP co-expressed along with Npw38 and NpwBP(P2)-GFP
Description: Monkey kidney-derived, cultured cell COS7 was incubated in a 10% fetal calf serum-containing Dulbecco's modified Eagle's medium (DMEM) in the presence of 5% CO2 at 37° C. COS7 cells of 1=10^5 were placed in a 6-well plate (from Nunk, having a well diameter of 3 cm), and further incubated therein in the presence of 5% CO2 at 37° C. for 22 hours. After the medium was removed, the cell sur were washed with a phosphate buffer solution (PBS), and then further washed with a 50 mM Tris-HCl (pH 7.5)-containing DMEM. To these cells, added was a suspension comprising 1 μl of a plasmid suspension, 0.6 ml of DMEM and 3 μl of TRANSFECTAM™ (from IBF), and incubated in the presence of 5% CO2 at 37° C. for 12 hours. Then, the cells were washed with PBS, and fixed with 4% peraformaldehyde-containing PBS at room temperature for 10 minutes. The thus-fixed cells were washed with PBS, then treated with 0.2% Triton X-100, and thereafter blocked with 5% milk PBS. This was reacted with an anti-HA antibody for 45 minutes, then washed with PBS, and reacted with a rhodamine-binding secondary antibody for 45 minutes.
In the system of the above (2), NpwBP of more than NpwBP(P2)-GFP was co-expressed in the cells along with Npw38 and NpwBP(P2)-GFP. In this case, the intranuclear localization of NpwBP(P2)-GFP was inhibited. […]

| Molecule | intranuclear localization of the green fluorescence of NpwBP-GFP (Npw38) | intranuclear localization of NpwBP(P2)-GFP [1] |
| --- | --- | --- |
| B1 | no intranuclear localization | – |
| B2 | – | inhibited |

Reference: patent publication US20030040012A1, “Method of detecting protein-protein interaction” (priority 2000, published 2003)
